Reference: PMC5489213

Key:
[1] = biological target: MAdV-2.IXeGFP virus particle (replication competent MAdV-2 with enhanced green fluorescent protein fused to minor capsid protein IX) (mouse adenovirus 2 | not stated)
[2] = biological target: mouse adenovirus 2 (MAdV-2), wild type virus particle (mouse adenovirus 2)
[3] = biological target: MAdV-2.IXeGFP virus particle (replication competent MAdV-2 with enhanced green fluorescent protein fused to minor capsid protein IX) (mouse adenovirus 2 | not stated); remark: listed apart in the source

Row | Molecule | infection of CMT-93 cells by MAdV-2.IXeGFP pre-incubated with cryptdin 2 (dose-responsive over the indicated concentrations), relative to infection without defensin [1] [fold] | infection of CMT-93 cells by MAdV-2 pre-incubated with cryptdin 2 (dose-responsive over the indicated concentrations), relative to infection without defensin [2] [fold] | infection of CMT-93 cells by MAdV-2.IXeGFP pre-incubated with cryptdin 3 (indicated concentrations), relative to infection without defensin [3] [fold]
1 | Cryptdin 2 (peptide) | 2.4 | 1.8 | 
2 | LRDLVCYCRKRGCKRRERMNGTCRKGHLMYTLCCR [Cryptdin 3] |  |  | 1.7
